Measured values reported in patent US20260234738A1 (Regeneron, published 2026).
Residue numbers refer to the chain shown, from its start. Where “and” joins values, the source holds several entries; their conditions need not be identical. Identical values can stand only once.

B1: mAb10913 (antibody, V domains shown)
VH: EVQLVESGGGLVQPGGSLRLSCAASGFTFRNYEMNWVRQAPGKGLEWVSYITSSGSTMYYADSVKGRFTISRDNAKNSLYLQMNSLRAEDTAVYYCARDGFYYYYAMDVWGQGTTVTVSS
VL: QSVLTQPPSVSAAPGQKVTISCSGSSSNIGNNYVSWYQQLPGTAPKLLIYDNNKRPSGIPDRFSGSKSGTSATLGITGLQTGDEADYYCGTWDSSLSVGRVFGTGTKVTVLG
B2: mAb10914 (antibody, V domains shown)
VH: EVQLVESGGGLVQPGGSLRLSCAASGLIVSRNYMIWVRQAPGKGLEWVSVIYSGGSTFYADSVKGRFTISRHNSKNTLYLQMNSLRAEDTAVYYCARDLGTGGMDVWGQGTTVTVSS
VL: DIQLTQSPSFLSASVGDRVTITCWASQGISSYLAWYQQKPGKAPKLLIYAASTLQSGVPSRFSGSGSGTEFTLTISSLQPEDFATYYCQQLNSYPLTFGGGTKVEIKR
B3: mAb10915 (antibody, V domains shown)
VH: EVQLVESGGGLVQPGGSLRLSCAASGFTVSSNYMNWVRQAPGKGLEWVSVIYSGGSTFYADSVKGRFTISRHNSKNTLYLQMNSLRPEDTAVYYCARDLGGYFDYWGQGTLVTVSS
VL: not shown
B4: mAb10932 (antibody, V domains shown)
VH: EVQLVESGGGLVQSGGSLRLSCAASGLTVSSNYMSWVRQAPGKGLEWVSVIYSGGSTFYSDSVKGRFTISRHNSKNTLYLQMNSLRAEDTAVYYCARARGDAFDIWGQGTMVTVSS
VL: not shown
B5: mAb10934 (antibody, V domains shown)
VH: not shown
VL: DIQMTQSPSSLSASVGDRVTITCQASQDIWNYINWYQQKPGKAPKLLIYDASNLKTGVPSRFSGSGSGTDFTFTISSLQPEDIATYYCQQHDDLPPTFGQGTKVEIKR
B6: mAb10935 (antibody, V domains shown)
VH: EVQLVESGGGLVQPGGSLRLSCAASGFTVSSNYMSWVRQAPGKGLEWVSLIYSGGSTYYADSVKGRFTISRHNSKNTLYLQMNSLRSEDTAVYYCARVPLGDYYYGMDVWGQGTTVTVSS
VL: B5 VL with W30N, N31K, I33L, K55E, H91S, D93N, P96L, Q100G
B7: mAb10986 (antibody, V domains shown)
VH: EVQLVESGGGLVQPGGSLRLSCAASEFTVSSNYMSWVRQAPGKGLEWVSVIYSGGSTFYADSVKGRFTISRDNSKNTLYLQMNSLRAEDTAVYYCARALPYGDLHFDYWGQGTLVTVSS
VL: QSVLTQPPSVSGAPGQRVTISCTGSSSNIGTGYDVHWYQQLPGTAPKLLIYGNTNRPSGVPDRFSGSKSGTSASLAITGLQAEDEADYYCQSYDSSLSDSYVFGTGTKVTVLG
B8: mAb10989 (antibody, V domains shown)
VH: QVQLVQSGAEVKKPGASVKVSCKASGYIFTGYYMHWVRQAPGQGLEWMGWINPNSGGANYAQKFQGRVTLTRDTSITTVYMELSRLRFDDTAVYYCARGSRYDWNQNNWFDPWGQGTLVTVSS
VL: QSALTQPASVSGSPGQSITISCTGTSSDVGTYNYVSWYQQHPGKAPKLMIFDVSNRPSGVSDRFSGSKSGNTASLTISGLQAEDEADYYCSSFTTSSTVVFGGGTKLTVLG
B9: mAb10998 (antibody, V domains shown)
VH: EVQLVESGGGLVHPGGSLRLSCAASGLTVSSNYMSWVRQAPGKGLEWVSVIYSGGSTYYADSVKGRFTISRHNSKNTLFLQMNSLRAEDTAVYYCARDRPITGTTLDVWGQGTTVTVSS
VL: DIQMTQSPSSLFASVGDRVTITCRASQSISSYLNWYQQKPGKAPKLLIYAASSLQSGVPSRFSGSGSGTDFTLTISSLQPEDFAFYYCQQTYSTPPITFGQGTRLEIKR
B10: mAb11006 (antibody, V domains shown)
VH: B3 VH with T28I, S31R, N35S, R86K, P87A, D98E, G100R
VL: B2 VL with Q90L, L96Y, G100Q, V104L
B11: mAb11008 (antibody, V domains shown)
VH: EVQLVESGGGLVQPGGSLRLSCAASGFTVSSNYMTWVRQAPGKGLEWVSVIYSGGSTFYADSVKGRFTISRHNSENTLYLQMNSLRAEDTAVYYCARDLAAAGTDYWGQGALVTVSS
VL: B2 VL with E81D, Q90H, P95L, L96Y, G100Q, V104L
B12: mAb11010 (antibody, V domains shown)
VH: QVQLVESGGGVVQPGRSLRLSCAASGFTFSSYGMHWVRQAPGKGLEWVAVISYDGSYKYYADSVKGRFTISRDNSKNTLYLQMNSLRAEDTAVYYCAIDGGTVTTIFDYWGQGTLVTVSS
VL: not shown
B13: mAb10936 (antibody, V domains shown)
VH: QVQLVESGGGVVQPGRSLRLSCAASGFTFRNYGMHWVRQAPGKGLEWVSVIWYDGSNRYYADSVKGRFTISRDTSKNTLYLQMNSLRAEDTAVYYCARDPPITGTTGGDAFDIWGQGTMVTVSS
VL: not shown
B14: mAb10937 (antibody, V domains shown)
VH: QITLKESGPTLVKPTQTLTLTCTFSGFSLSTNVVGVGWIRQPPGKALEWLALIYWNDDKRYSPSLKSRLTITKDTSKNQVVLTMTNMDPVDTATYYCAHGPTGDYFDYWGQGTLVTVSS
VL: not shown
B15: mAb10920 (antibody, V domains shown)
VH: QVQLVESGGGVVQPGRSLRLSCAASGFTFSYYGMHWVRQAPGKGLEWVAVIWYDGSNKFYADSVKGRFTISRDNSKNTLYLQMNSLRAEDTAVYYCAAARPGYYYGMDVWGQGTTVTVSS
VL: DIQMTQSPSSLSASVGDRVTITCRASQGISNYLAWFQQKPGKAPNSLIYAASSLQRGVPSKFSGSGSGTDFTLTISSLQPEDFATYYCQQYNSYPRTFGQGTKVEIKR
B16: mAb10921 (antibody, V domains shown)
VH: EVQLVESGGGLVQPGGSLRLSCAASGITVSSNYMSWVRQAPGKGLEWVSVIYSGGSTFYADSVKGRFTISRHNSKNTLYLQMNSLRAEDTAVYYCARERNFDAFDIWGQGTMVTVSS
VL: DIQMTQSPSSVSASVGDRVTITCRASQGISSWLAWYQQKPGKAPKLLIYAASSLQSGVPSRFSGSGSGTDFTLTISSLQPEDFATYYCQQANSFPLFTFGPGTKVDIKR
B17: mAb10923 (antibody, V domains shown)
VH: QVQLVQSGAEVKKPGASVKVSCKASGYTFINYYIHWVRQAPGQGLEWMGWINPNSGGTNYAQKFQGRVTMTRDTSISTAYMELSRLRSDDTAVYYCAIITIFGVVTWFDPWGQGTLVTVSS
VL: not shown
B18: mAb10930 (antibody, V domains shown)
VH: EVQLVESGGGLVQPGRSLRLSCAASGFTFDDYAMYWVRQAPGKGLEWVSGISWNSGSIGYADSVKGRFTISRDNAKNSLYLQMNSLRAADTALYYCAKDKDWNSRGYYYYGMDVWGQGTTVTVSS
VL: not shown
B19: mAb10938 (antibody, V domains shown)
VH: EVQLVESGGGLVQPGGSLRLSCAVSGFTVSSNYMSWVRQAPGKGLEWVSLIYSGGSTFYADSVKGRFTISRHNSKNTLYLQMNSLRAEDTAVYYCAREGGYSYDYNYWGQGTLVTVSS
VL: B5 VL with W30R, I33L, K55E, S65I, H91Y, D93N, P96I, K103R, V104L
B20: mAb10939 (antibody, V domains shown)
VH: EVQLVESGGGLVQPGGSLRLSCAASGLTVSSNYMNWVRQVPGKGLEWVSVIYSGGSKFYVDSVKGRFTISRHNSKNTLYLQMNSLRPEDTAVYYCTRDAQYYGMDVWGQGTTVTVSS
VL: B9 VL with F12S, S31T, N34H, K42E, F85T, T91S, I97E, T98I, R104K
B21: mAb10982 (antibody, V domains shown)
VH: EVQLVESGGGLVQPGGSLRLSCAASGLTVSSNYMSWVRQAPGKGLEWVSVIYSGGTTYYADSVKGRFTISRHNSKNTLSLQMNSLRAEDTAVYYCARGEGANYYGMDVWGQGTTVTVSS
VL: B7 VL with T54S, D99G, S100Y, Y101V, T105G, V109L
B22: mAb10984 (antibody, V domains shown)
VH: EVQLVESGGGLVQPGGSLRLSCAASGLTVNRNYMSWVRQAPGKGLEWVSLIYSGGSTYYADSVKGRFTISRDNSKNTLYLQMNSLRLEDTAVYYCARGELGIPYGMDVWGQGTTVTVSS
VL: QSVLTQPPSVSAAPGQKVTISCSGSSSNIGNNYVSWYQQLPGTAPKLLIYDNNKRPSGIPDRFSGSKSGTSATLGITGLQTGDEADYYCGTWDSSLSAGVFGGGTKLTVLG
B23: mAb10986 (antibody, V domains shown)
VH: B7 VH
VL: B7 VL

Key:
[1] = target: SARS-CoV-2 Spike Protein (RBD) (R319-F541).mFc (SARS-CoV-2); assay: Luminex beads, supernatant
[2] = target: SARS-CoV-2 Spike Protein (RBD) (R319-F541).hFc (SARS-CoV-2); assay: Luminex beads, supernatant
[3] = target: Bt-SARS-CoV-2 Spike Protein (RBD) (R319-F541).mFc (SARS-CoV-2); assay: Luminex beads, supernatant
[4] = target: SARS-COV-2 Spike protein receptor binding domain (amino acids Arg319-Phe541) expressed with the Fc p (SARS-CoV-2)

Binder | MFI [1] | MFI [2] | MFI [3] | IC50 [4]
B1 | 33000 MFI | 31900 MFI | 16600 MFI | 
B2 | 30700 MFI | 30500 MFI | 16000 MFI | 
B3 | 31800 MFI | 32400 MFI | 20100 MFI | 
B4 | 30600 MFI | 30600 MFI | 17700 MFI | 
B5 | 34300 MFI | 35800 MFI | 21200 MFI | 
B6 | 35900 MFI | 35600 MFI | 19300 MFI | 
B7 |  |  |  | 0.0754 nM
B8 |  |  |  | 0.0591 nM and 0.0428 nM
B9 |  |  |  | 4.3 nM
B10 |  |  |  | 0.22 nM
B11 |  |  |  | 1.49 nM
B12 |  |  |  | 0.147 nM
B13 | 33700 MFI | 33900 MFI | 21600 MFI | 
B14 | 34200 MFI | 34600 MFI | 19700 MFI | 
B15 | 36400 MFI | 36800 MFI | 20300 MFI | 
B16 | 19400 MFI | 22300 MFI | 11300 MFI | 
B17 | 37400 MFI | 37800 MFI | 19600 MFI | 
B18 | 28600 MFI | 28900 MFI | 16600 MFI | 
B19 | 30500 MFI | 29600 MFI | 17200 MFI | 
B20 | 33900 MFI | 32900 MFI | 18700 MFI | 
B21 | 23300 MFI | 23000 MFI | 12300 MFI | 
B22 | 28400 MFI | 28400 MFI | 17100 MFI | 
B23 | 28400 MFI |  | 15900 MFI | 
